Experimental data published in paper doi:10.1101/2024.11.10.622873 (bioRxiv, 2024).
Like-named read-outs stand apart in the source and are kept apart here.

Columns and labels:
Assay in all cases: BLI
[1] = molecular target: COP-1, synthetic antibody fragment (sFab), with C-terminal histidine tag
[2] = molecular target: COP-1, synthetic antibody fragment (sFab), with C-terminal histidine tag; remark: listed apart in the source
[3] = molecular target: human claudin-18 splice variant 18.1 (human, UniProt P56856)
human claudin-6 = human claudin-6 (human, UniProt P56747)
[4] = molecular target: human junctional adhesion molecule-A (Homo sapiens, UniProt Q9Y624)
human claudin-5 = human claudin-5 (human, UniProt O00501)
human claudin-9 = human claudin-9 (human, UniProt O95484)
human occludin = human occludin (Homo sapiens, UniProt Q16625)
murine claudin-15 = murine claudin-15 (mouse, UniProt Q9Z0S5)
[5] = molecular target: human claudin-18 splice variant 18.2 (human, UniProt P56856-2)
human claudin-1 = human claudin-1 (human, UniProt O95832)
human claudin-3 = human claudin-3 (human, UniProt O15551)
human claudin-19 = human claudin-19 (human, UniProt Q8N6F1)
[6] = molecular target: C-terminal domain of Clostridium perfringens enterotoxin, in solution (Clostridium perfringens, UniProt P01558)
human claudin-17 = human claudin-17 (human, UniProt P56750)
Chain of human claudin-17 (P56750 whole entry): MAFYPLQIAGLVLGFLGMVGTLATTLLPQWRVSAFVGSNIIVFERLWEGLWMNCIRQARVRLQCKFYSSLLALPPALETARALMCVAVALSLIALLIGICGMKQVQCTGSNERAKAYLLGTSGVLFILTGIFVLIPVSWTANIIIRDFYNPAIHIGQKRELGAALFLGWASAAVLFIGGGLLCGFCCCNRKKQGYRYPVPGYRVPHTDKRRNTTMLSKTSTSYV

Chain of human claudin-5 (O00501 whole entry): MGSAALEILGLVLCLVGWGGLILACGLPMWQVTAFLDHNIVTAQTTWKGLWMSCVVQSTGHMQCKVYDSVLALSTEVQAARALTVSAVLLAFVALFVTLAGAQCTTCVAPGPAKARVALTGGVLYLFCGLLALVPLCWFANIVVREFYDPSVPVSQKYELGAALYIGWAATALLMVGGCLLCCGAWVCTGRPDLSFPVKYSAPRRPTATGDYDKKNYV
Chain of human claudin-9 (O95484 whole entry): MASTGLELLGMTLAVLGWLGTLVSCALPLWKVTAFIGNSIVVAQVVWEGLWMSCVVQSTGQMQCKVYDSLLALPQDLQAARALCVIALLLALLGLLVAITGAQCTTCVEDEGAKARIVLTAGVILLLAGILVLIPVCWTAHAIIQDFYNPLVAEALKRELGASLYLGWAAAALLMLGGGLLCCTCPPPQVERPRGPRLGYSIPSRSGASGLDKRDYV
Chain of human claudin-1 (O95832 whole entry): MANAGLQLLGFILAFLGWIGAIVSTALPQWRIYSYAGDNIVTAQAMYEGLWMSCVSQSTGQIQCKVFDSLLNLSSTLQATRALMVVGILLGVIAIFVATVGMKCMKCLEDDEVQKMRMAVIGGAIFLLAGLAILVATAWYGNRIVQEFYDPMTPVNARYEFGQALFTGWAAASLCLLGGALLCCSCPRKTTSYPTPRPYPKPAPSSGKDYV
Chain of human claudin-6 (P56747 whole entry): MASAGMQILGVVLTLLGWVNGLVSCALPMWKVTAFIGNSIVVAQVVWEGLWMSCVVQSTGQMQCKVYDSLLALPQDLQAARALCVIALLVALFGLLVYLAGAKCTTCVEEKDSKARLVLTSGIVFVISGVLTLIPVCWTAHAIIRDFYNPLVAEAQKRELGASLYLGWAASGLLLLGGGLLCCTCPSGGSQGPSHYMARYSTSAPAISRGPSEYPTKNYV
Chain of murine claudin-15 (Q9Z0S5 whole entry, canonical isoform): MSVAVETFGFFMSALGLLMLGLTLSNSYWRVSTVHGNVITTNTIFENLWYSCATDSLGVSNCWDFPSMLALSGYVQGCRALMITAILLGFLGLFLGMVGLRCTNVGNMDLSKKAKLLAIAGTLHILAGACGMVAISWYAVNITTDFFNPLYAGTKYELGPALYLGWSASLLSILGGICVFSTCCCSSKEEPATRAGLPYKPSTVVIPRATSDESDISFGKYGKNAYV
Chain of C-terminal domain of Clostridium perfringens enterotoxin, in solution (P01558 198-319): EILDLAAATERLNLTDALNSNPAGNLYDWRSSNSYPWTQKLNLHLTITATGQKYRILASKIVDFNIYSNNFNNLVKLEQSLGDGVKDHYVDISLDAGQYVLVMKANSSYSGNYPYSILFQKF
Chain of human claudin-19 (Q8N6F1 whole entry, the tested form may be a part): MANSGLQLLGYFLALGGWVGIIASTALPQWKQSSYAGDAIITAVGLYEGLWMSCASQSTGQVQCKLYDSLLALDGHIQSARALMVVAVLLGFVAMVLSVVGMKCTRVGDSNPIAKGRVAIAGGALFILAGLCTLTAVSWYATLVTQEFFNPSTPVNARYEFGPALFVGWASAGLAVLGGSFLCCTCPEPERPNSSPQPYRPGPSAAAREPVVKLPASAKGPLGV
Chain of human claudin-3 (O15551 whole entry): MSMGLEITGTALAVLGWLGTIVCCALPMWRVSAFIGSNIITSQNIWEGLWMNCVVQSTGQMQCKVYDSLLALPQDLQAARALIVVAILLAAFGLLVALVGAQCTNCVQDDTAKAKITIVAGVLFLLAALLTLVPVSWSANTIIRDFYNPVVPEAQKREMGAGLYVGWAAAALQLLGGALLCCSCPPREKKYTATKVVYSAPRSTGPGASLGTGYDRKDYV

human claudin-4 (from UniProt O14493) (natural protein)
Kd [1]: 106 nM | t1/2 of the complex [1]: 30 min | Kd [2]: 70.6 nM

B1: COP-1, synthetic antibody fragment (sFab), with C-terminal histidine tag (Fab, V domains shown)
VH: EVQLVESGGGLVQPGGSLRLSCAASGFNFSSSYIHWVRQAPGKGLEWVASISSSSGSTSYADSVKGRFTISADTSKNTAYLQMNSLRAEDTAVYYCARWFHPWWWWEYLFRGAIDYWGQGTLVTVSS
VL: DIQMTQSPSSLSASVGDRVTITCRASQSVSSAVAWYQQKPGKAPKLLIYSASSLYSGVPSRFSGSRSGTDFTLTISSLQPEDFATYYCQQSSSSLITFGQGTKVEIK
Kd [3]: 92.4 nM | Kd (human claudin-6): 59.5 nM | binding result [4]: no binding (tested: 500 nM) | Kd (human claudin-5): 75.8 nM | Kd (human claudin-9): 66 nM | binding result (human occludin): no binding (tested: 500 nM) | Kd (murine claudin-15): 59 nM | Kd [5]: 66.4 nM | Kd (human claudin-1): 61.3 nM | Kd (human claudin-3): 57.9 nM | Kd (human claudin-19): 62.2 nM | binding result [6]: no binding | Kd (human claudin-17): 80.2 nM
